The experiment has as its target cynomolgus monkey CD122 on NK cells (cynomolgus monkey) (UniProt Q38J85). Nature of the experiment: flow cytometry of blood from cynomolgus monkeys after a single IV dose of 1 mg/kg. On the technique in general: Flow cytometry measures light scatter and fluorescence of single cells or particles in a stream.

cynomolgus monkey CD122 on NK cells (cynomolgus monkey), sequence (Q38J85 27-551 limits assumed): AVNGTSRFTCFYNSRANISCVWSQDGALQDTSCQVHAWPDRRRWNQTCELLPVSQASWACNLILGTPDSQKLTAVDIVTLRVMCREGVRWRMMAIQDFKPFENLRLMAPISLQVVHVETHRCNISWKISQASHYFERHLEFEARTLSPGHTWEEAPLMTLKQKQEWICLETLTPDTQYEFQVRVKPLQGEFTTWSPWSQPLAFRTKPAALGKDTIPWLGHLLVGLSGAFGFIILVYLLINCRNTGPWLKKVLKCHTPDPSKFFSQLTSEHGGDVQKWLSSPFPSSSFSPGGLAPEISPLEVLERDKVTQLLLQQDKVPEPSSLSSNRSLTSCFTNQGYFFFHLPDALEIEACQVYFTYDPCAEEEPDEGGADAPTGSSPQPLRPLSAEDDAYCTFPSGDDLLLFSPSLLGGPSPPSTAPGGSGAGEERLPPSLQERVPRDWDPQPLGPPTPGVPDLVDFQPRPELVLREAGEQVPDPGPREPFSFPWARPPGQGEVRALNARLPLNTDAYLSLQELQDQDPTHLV

B1: MAB05 (antibody, V domains shown)
VH: EVQLLESGGGLVQPGGSLRLSCAASGFTVTSYAVHWVRQAPGKGLEWLGVIWSGGSTDYNAAFISRLTISKDNSKNTVYFQMNSLRAEDTAVYYCARAGDANYDGFAYWGQGTLVTVSS
VL: DIQMTQSPSSLSASVGDRVTITCQASQSVSFLYWYQQRPGKAPRLLIYDTSNLASGVPSRFSGSGSGTSYTFTISSLQPEDIATYYCQQWSTYPLTFGQGTKVEIK
The molecule B1 gave a CD122 receptor occupancy on NK cells of more than 90%.

B2: MAB06 (antibody, V domains shown)
VH: EVQLLESGGGLVQPGGSLRLSCAASGFTVTSYAVHWVRQAPGKGLEWLGVIWSGGSTDYNAAFISRLTISKDNSKNTVYFQMNSLRAEDTAVYYCARAGDANYDGFAYWGQGTLVTVSS
VL: DIQMTQSPSSLSASVGDRVTITCQASSSVSFMYWYQQRPGKAPRLLIYDTSNLASGVPSRFSGSGSGTSYTFTISSLQPEDIATYYCQQWSTYPLTFGQGTKVEIK
Turning to B2, the CD122 receptor occupancy on NK cells is more than 90%.
